Assay results published in the nanobody polyreactivity screen of Harvey et al. (2022).

Experiment: yeast display, Sf9 membrane polyspecificity reagent, FACS + sequencing; frameworks hold sequencing errors
Outline: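 Nanobodies came from a synthetic yeast display library in Saccharomyces cerevisiae BJ5465, induced with galactose for 36–48 hours and stained for 1 hour at 4 °C with 10% biotinylated, detergent-solubilized Sf9 membrane reagent. Cells were enriched on streptavidin microbeads and then FACS-sorted, with low and high (top ~1%) gates set on anti-HA fluorescence for expression and streptavidin fluorescence for reagent binding. Each polyreactivity label reflects the gate a clone came from. Genes were amplified by colony PCR, sequenced by MiSeq 2 × 250 and filtered by CDR length.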

| Sequence | polyreactivity (PSR sort gate) |
| --- | --- |
| QVQLVESGGGLVQAGGSLRLSCAASGSIFRLYAMGWYRQAPGKERELVAAISRRGGSTNYADSVKGRFTISRDNAKNTVYLQMNSLKPEDTAVYYCARDVDTHYPYAYDYWGQGTQVTVSS | high polyreactivity |
| QVQLVESGGGLVQAGGSLRLSCAASGSIFRLYGMGWYRQAPGKERELVASITYRGGNTYYADSVKGRFTISRDNAKNTVYLQMNSLKPEDTAVYYCARSGYQKVGGFRYDYWGQGTQVTVSS | low polyreactivity |
| QVQLVESGGGLVQAGGSLRLSCAASGSIFRLYTMGWYRQAPGKERELVAAISQSGGRTYYADSVKGRFTISRDNAKNTVYLQMNSLNPEDTAVYYCNAVGPYRPYGGQGAPYDYWGQGTQVTVSS | high polyreactivity |
| QVQLVESGGGLVQAGGSLRLSCAASGSIFRNYAMGWSRQAPGKERELVAAITSIGGGTYYADSVKGRFTISRDNAKNTVYLQMNSLKPEDTADYYCAADYGFYPYDYVYWGQGTQVTVSS | low polyreactivity |
| QVQLVESGGGLVQAGGSLRLSCAASGSIFRNYAMGWYRQAPGKERELVAAITRGGGSTYYADSVKGRFTISRDNAKNTVYLQMNSLKPEDTAVYYGAAGSTRERNPRYGYWGQGTQVTVSS | high polyreactivity |
| QVQLVESGGGLVQAGGSLRLSCAASGSIFRPNAMGWYRQAPGKERELVAAITWSGDSTYYADSVKGRFTISRDNAKNTVYLQMNSLKPEDTADYYCAADFTYQGSSANDYWGQGTQVTVSS | low polyreactivity |
| QVQLVESGGGLVQAGGSLRLSCAASGSIFRQYAMGWYRQAPGKDRELVAAIRSGGSTYYADSVQGRFTISRDNAKNTVYLQMNSLKPEDTAVYYCARGYSWSVGYPRVQDMDYWGQGTQVTVSS | high polyreactivity |
| QVQLVESGGGLVQAGGSLRLSCAASGSIFRRYAMGWNRQAPGKERELVAYISRSGGSTYYADSVKGRFTISRDNAKNTVYLQMNRLKPEDTAVYYCAAQRYRTGDSWGQGTQVTVSS | high polyreactivity |
| QVQLVESGGGLVQAGGSLRLSCAASGSIFRRYAMGWYRQAPGKEREFVAAITRSGGGTYYADSVKGRFTLSRDNAKNTVYLQMNSLIPEDTAVYYCAKDVFVQRSRYPEGDYWGQGTQVTVSS | high polyreactivity |
| QVQLVESGGGLVQAGGSLRLSCAASGSIFRRYAMGWYRQAPGKERELVAAISFSGYSTYYADSVKGRFTISRDNAKNTVYLQMNSLKPEDTAVYYCAARSQRHKLSRDYNYWGQGTQVTVSS | high polyreactivity |
| QVQLVESGGGLVQAGGSLRLSCAASGSIFRRYAMGWYRQAPGKERELVAGISSGGYTNYADSVKGRFTISRDNAKNTVYLQMNSLKPEDTAVYYCAAKQYRYVRYRPVDYWGQGTQVTVSS | high polyreactivity |
| QVQLVESGGGLVQAGGSLRLSCAASGSIFRSYAMGWYRQAPGKERELVAAIRSDGRTNYADSVKGRFTISRDNAKNTVYFQMNSLKPEDTAVYYCDANAYYSYWRSMDYWGQGTQVTVSS | low polyreactivity |
| QVQLVESGGGLVQAGGSLRLSCAASGSIFRSYAMGWYRQAPGKERELVAAISRRGGSTYYADSVKGRFTISRDNVKNTVYLQMNSLKPEDTAVYYCAADRTGPYDYWGQGTQVTVSS | high polyreactivity |
| QVQLVESGGGLVQAGGSLRLSCAASGSIFRSYAMGWYRQAPGKERELVAAISWDGGTTYYADSVKGRFTISRDNAKNTVYLQMNSLKPEDTAVYYCAADASLLGLFQGYDYRGQGTQVTVSS | low polyreactivity |
| QVQLVESGGGLVQAGGSLRLSCAASGSIFRSYAMGWYRQAPGKERELVAAITSGDSTYYADSVKGRFTISRDNAKNTVYLQMNSLKPEDTAVYYCATGLGSTDRSYEYWGQGTQVTVSS | low polyreactivity |
| QVQLVESGGGLVQAGGSLRLSCAASGSIFRSYAMGWYRQAPGKERELVASISRRGGSTYYADSVKGRFTISRDNAKNTVYLQMNSLKPEDTAVYYCAVESGYTRSSDYWGQGTQVTVSS | low polyreactivity |
| QVQLVESGGGLVQAGGSLRLSCAASGSIFRSYAMGWYRQAPGKERELVASITWRGGRTYYADSVKGRFTISRDNAKNTVYLQMNSLKPEDSAVYYCNVDVPGVRFEYWGQGTQVTVSS | low polyreactivity |
| QVQLVESGGGLVQAGGSLRLSCAASGSIFRSYAMGWYRQAPGKERELVATIDRSGGSTYYADSVKGRFTISRDNAKNTVYLQMNSLKPEDTAVYYCNKTPHFPRPGFNYWGQGTQVTVSS | low polyreactivity |
| QVQLVESGGGLVQAGGSLRLSCAASGSIFRSYAMGWYRQAPGKERELVSAIRGSDGNTYYADSVKGRFTISRDNAKNTVYLQMNSLKPEDTAVYYCNARSYGYRTSRARYNYWGQGTQVTVSS | high polyreactivity |
| QVQLVESGGGLVQAGGSLRLSCAASGSIFRSYAMGWYSQAPGKERELVASISRRGGSTYYADSVKGRFTMSRDHAKNTVYLQMNSLKPEDTAVYYCAAVRYNSRVSTTPSEMYYWGQGTQVTVSS | low polyreactivity |
| QVQLVESGGGLVQAGGSLRLSCAASGSIFRTNAMGWYRPAPGKERELVAAITGSGGSTYYADSVKGRFTISRDNAKNTVYLQMNSLKPEDTAVYYCATPVNRERHAEDYWGQGTQVTVSS | low polyreactivity |
| QVQLVESGGGLVQAGGSLRLSCAASGSIFRTYAMGWYRQAPGKERELVAAISQSGGSTYYADSVKGRFTISRDNAKNTVYLQMNSLKPEDTAVYYCNKYFTRRQSAVSLSPGKFDYWGQGTQVTVSS | high polyreactivity |

| Sequence | polyreactivity (PSR sort gate) |
| --- | --- |
| QVQLVESGGGLVQAGGSLRLSCAASGSIFRTYAMGWYRQAPGKERELVAAITSGGSTYYADSVKGRFTISRDNAKNTVYLQMNSLKPEDTAVYYCAAVRYYRYWYYWGQGTQVTVSS | high polyreactivity |
| QVQLVESGGGLVQAGGSLRLSCAASGSIFRTYSMGGYRQAPGKERELVATITFGGVSTYYADSVKGRFTISRDNAKNTVYLQMNSLKPEDTAVYYCAADVYTRFWRVYRFDYWGQGTQVTVSS | low polyreactivity |
| QVQLVESGGGLVQAGGSLRLSCAASGSIFRVYAMGWYRQAPGKEREFLAAITTRGGSTYYADSVKGRFTISRDNAKNTVYLQMNSLKPEDTAVYYCAARGWVSAYYGYDYWGQGTQVTVSS | high polyreactivity |
| QVQLVESGGGLVQAGGSLRLSCAASGSIFRVYAMGWYRQAPGKERELVASMSSDGSTYYADSVKGRFTISRDNAKNTVYLQMNSLKPEDTAVYYEYDWGQGTQVTVSS | low polyreactivity |
| QVQLVESGGGLVQAGGSLRLSCAASGSIFRVYTMGWYIQAPGKERELVAAISRSGGRTYYADSVKGRFTISRDNAKNTVYLQMNSLKPEDTAVYYCAARSSLYRAGYRYNSWGQGTQVTVSS | high polyreactivity |
| QVQLVESGGGLVQAGGSLRLSCAASGSIFRVYTMGWYRQAPGKERELVAAISRSGGRTYYADSVKGRFTISRDNAKNTVYLQMNSLKPEDTAVYYCNAQYGGQYGYGYWGQGTQVTVSS | high polyreactivity |
| QVQLVESGGGLVQAGGSLRLSCAASGSIFRWNAMGWYIQAPGKERELVAAIDSGGSTYADSVKGRFTISRDNAKNTVYLQMNSLKPDDTAVYYCAAEIPDEWPYDYWGQGTQVTVSS | low polyreactivity |
| QVQLVESGGGLVQAGGSLRLSCAASGSIFRWNAMGWYRQSPGKERELLAAIDSGGSTYADSVKGRFTISRYNAKNTVYLQMYSLKPEDTAVYYCAAEIPDEWPYDYWGQGTQVTVSS | low polyreactivity |
| QVQLVESGGGLVQAGGSLRLSCAASGSIFRWYAMGWSRQAPGKEREFVAAITSSGGSTYYADSVKGRFTISRDNAKNTVYLQMNSLKPEDTAVYYCNRRYQPYSYDYWGQGTQVTVSS | high polyreactivity |
| QVQLVESGGGLVQAGGSLRLSCAASGSIFRWYDMGWYRQAPGKERELVAVISKRGGSTYYADSVKGRFTISRDNAKNTVYLQMNSLKPEDTAVYYCAKRYERWQLARLDYWGQGTQVTVSS | high polyreactivity |
| QVQLVESGGGLVQAGGSLRLSCAASGSIFRYNALGWYRQAPGKEREFVAAITRSGGSTYADSVKGRFTISRDNAKNTVYLQMNSLKPEDTAVYYCAATFKWYSHTKPRFDYWGQGTQVTVSS | low polyreactivity |
| QVQLVESGGGLVQAGGSLRLSCAASGSIFRYNAMGRYRQAPGKERELVAAITSNGGSTYYADSVKGRFTISRDNAKNTVYLQMNCQKPEDTAVYYCNAVYTFTRRYGYWGQGTQVTVSS | high polyreactivity |
| QVQLVESGGGLVQAGGSLRLSCAASGSIFRYNAMGWSRQAPGKEREFVAAISYSGGRTYYADSVKGRFTISRDNAKNTVYLQMNSLNPEDTAVYYCNAQYASGRSYFFYWHRYDYWGQGTQVTVSS | high polyreactivity |
| QVQLVESGGGLVQAGGSLRLSCAASGSIFRYNAMGWYRKAPGKERELVAAISYRGGSTYYADSVKGRFTISRDNAKITVYLQINSLKPEDTAVYYCAAAVQYSGYRFNYWGQGTQVTVSS | high polyreactivity |
| QVQLVESGGGLVQAGGSLRLSCAASGSIFRYNAMGWYRQAPGKERELVAAISASGGRTHYADSVKGRFTISRDNAKNTVYLQMNSLKPEDTAVYYCAAATYRGTSLYGYWGQGTQVTVSS | high polyreactivity |
| QVQLVESGGGLVQAGGSLRLSCAASGSIFRYNAMGWYRQAPGKERELVAAITSGDSTYYADSVKGRFTISRDNAKNTVYLQMNSLKPEDTAVYYCAVTTWANTQWEDYWGHGTQVTVSS | low polyreactivity |
| QVQLVESGGGLVQAGGSLRLSCAASGSIFRYNTMGWYRQAPGKERELVAAIRGDGSTNYADSVKGRFTISRANAKNTVYLQMNSLKPEDTAVYYCAVTLRGYRYAYDYWGQGTQVTVSS | low polyreactivity |
| QVQLVESGGGLVQAGGSLRLSCAASGSIFRYNTMGWYRQAPGKERELVASIRIGGSTYYADSVKGRFTISRDNAKNTVYLQMNSLKPEDTAVYYCAVRPYRSAGGSVTRGAYYYWGQGTQVTVSS | high polyreactivity |
| QVQLVESGGGLVQAGGSLRLSCAASGSIFRYYAMGWYIQAPGKERELVAGITGSTGRTYYADSVKGRFTISRDNAKNTVYLQMNSLKPEDTAVYYCAARSRYYEYDYWGQGTQVTVSS | low polyreactivity |
| QVQLVESGGGLVQAGGSLRLSCAASGSIFRYYAMGWYRQAPGKDRELVAVITRGGSTYYADSVKGRFTISRDNAKNTVYLQMNSLKPEDTAVYYCAADSWPAGLDRGYWGQGTQVTVSS | low polyreactivity |
| QVQLVESGGGLVQAGGSLRLSCAASGSIFRYYAMGWYRQAPGKEREFVAAINTNDAGTYYADSVKGRFTISRDYAKNTVYLQMNSLKPEDTAVYYCAADTGYRFWYDYWGQGTQVTVSS | high polyreactivity |
